The experiment has as its target Vibrio His-FliFG fusion protein (FliF-FliG fusion) with the FliG-G214S mutation (Vibrio alginolyticus). Nature of the experiment: cryo-EM structure.

Where “and” joins values, the source holds several entries; their conditions need not be identical. Equal entries are not always repeated.

“Vibrio His-FliFG fusion protein (FliF-FliG fusion) with the FliG-G214S mutation”: the stoichiometry N (commonly a count of units in the complex or per binding partner) was 35 subunits and 34 subunits.

The record behind these values is publication doi:10.1101/2024.04.26.591406.
